# Patent publication US20260193335A1 (ZOETIS SERVICES, published 2026)
# Positions count from the first letter of the chain named.
# B1: mAb6 anti-TGFβ antibody ZTS-120-2, wildtype (antibody)
# heavy: QVLLVQSGADVRKPGASVKIFCKASGYTFTSNVISWVRQTPAQGFEWMGGVIPIVDIANYAQRFKGRLVLTADTSTNTAYMELRSLKSADTAVYYCASTLGLVLDAMDYWGQGSLVTVSSASTTAPSVFPLAPSCGTTSGATVALACLVLGYFPEPVTVSWNSGALTSGVHTFPAVLQASGLYSLSSMVTVPSSRWLSDTFTCNVAHPPSNTKVDKTVRKTDHPPGPKPCDCPKCPPPEMLGGPSIFIFPPKPKDTLSISRTPEVTCLVVDLGPDDSDVQITWFVDNTQVYTAKTSPREEQFNSTYRVVSVLPILHQDWLKGKEFKCKVNSKSLPSPIERTISKAKGQPHEPQVYVLPPAQEELSRNKVSVTCLIKSFHPPDIAVEWEITGQPEPENNYRTTPPQLDSDGTYFVYSKLSVDRSHWQRGNTYTCSVSHEALHSHHTQKSLTQSPGK
# light: EIQMTQSPSSLSASPGDRVTITCRASQSLGSSYLAWYQQKPGKVPKLLIYGASSRAPGVPSRFSGSGSGTDFTLTISSLEPEDAATYYCQQYADSPITFGQGTKLEIK
# notes: also called mAb6 ID No. 14
# B2: mAb6 anti-TGFβ antibody ZTS-120-3, wildtype (antibody)
# heavy: QVLLVQSGAEVRTPGASVKIFCKASGYGFTSNVISWVRQSPAQGLEWMGGVIPIVDIANYAQRFKGRLTLTADTSTDTAYMELSSLRSADTAMYYCASTLGLVLDAMDYWGQGTLVTVSSASTTAPSVFPLAPSCGTTSGATVALACLVLGYFPEPVTVSWNSGALTSGVHTFPAVLQASGLYSLSSMVTVPSSRWLSDTFTCNVAHPPSNTKVDKTVRKTDHPPGPKPCDCPKCPPPEMLGGPSIFIFPPKPKDTLSISRTPEVTCLVVDLGPDDSDVQITWFVDNTQVYTAKTSPREEQFNSTYRVVSVLPILHQDWLKGKEFKCKVNSKSLPSPIERTISKAKGQPHEPQVYVLPPAQEELSRNKVSVTCLIKSFHPPDIAVEWEITGQPEPENNYRTTPPQLDSDGTYFVYSKLSVDRSHWQRGNTYTCSVSHEALHSHHTQKSLTQSPGK
# light: B1 light
# notes: also called mAb6 ID No. 16
# B3: mAb6 anti-TGFβ antibody ZTS-120-4, wildtype (antibody)
# heavy: B1 heavy with T30S, I34M, S35H, G50S, N59T, Q62R, K65Q, S98R
# light: B1 light
# notes: also called mAb6 ID No. 18
# B4: mAb6 anti-TGFβ antibody ZTS-120-1, wildtype (antibody)
# heavy: QVQLVQSGAEVKKPGSSVKVSCKASGYTFSSNVISWVRQAPGQGLEWMGGVIPIVDIANYAQRFKGRVTITADESTSTTYMELSSLRSEDTAVYYCASTLGLVLDAMDYWGQGTLVTVSSASTTAPSVFPLAPSCGTTSGATVALACLVLGYFPEPVTVSWNSGALTSGVHTFPAVLQASGLYSLSSMVTVPSSRWLSDTFTCNVAHPPSNTKVDKTVRKTDHPPGPKPCDCPKCPPPEMLGGPSIFIFPPKPKDTLSISRTPEVTCLVVDLGPDDSDVQITWFVDNTQVYTAKTSPREEQFNSTYRVVSVLPILHQDWLKGKEFKCKVNSKSLPSPIERTISKAKGQPHEPQVYVLPPAQEELSRNKVSVTCLIKSFHPPDIAVEWEITGQPEPENNYRTTPPQLDSDGTYFVYSKLSVDRSHWQRGNTYTCSVSHEALHSHHTQKSLTQSPGK
# light: ETVLTQSPGTLSLSPGERATLSCRASQSLGSSYLAWYQQKPGQAPRLLIYGASSRAPGIPDRFSGSGSGTDFTLTISRLEPEDFAVYYCQQYADSPITFGQGTKLEIK
# notes: also called mAb6 ID No. 12
# Target: T1, Feline FcRn (complex of FcRn-α subunit and β-microglobulin, C-terminal His tag) (feline, UniProt A0ABI7ZNY9 23-296; Q5MGS7 21-118)
# T1 construct: treated here as one molecule
# Experiment: SPR Biacore, FcRn on sensor, pH 6; pH 6
# Method: As discussed in the above Example section, Feline FcRn was isolated, prepared and mutant Fc IgGs were assayed against feline FcRn according to Strietzelg et. al. Standard RACE PCR was used to amplify feline FcRn-α subunit and β-microglobulin. FcRn-α subunit and β-microglobulin were co-transfected into HEK 293 cells and the FcRn complex was purified by IMAC affinity purification via the c-terminal His tag. KD's were measured by Biacore 3000 or Biacore T200 (GE Healthcare, Pittsburgh, PA, USA) using a CM5 sensor chip.
# FcRn was captured on the surface of the sensor using a modified SA capture method. 10 mM MES; 150 mM NaCl; 0.005% Tween20; 0.5 mg/mL BSA; pH6 was used as capture, method running buffer and titrations. 1×HBS-P, 0.5 mg/mL BSA; pH7.4 was also used for method running buffer and titrations. Fc mutant IgGs were flowed over receptor surfaces and affinity was determined using T200 evaluation software or Biacore Insight Evaluation software. Blank runs containing buffer only were subtracted out from all runs. Flow cells were regenerated using 50 mM Tris pH8 or pH9. Runs were performed at 15° C.
row,Binder,Kd [µM]
1,B1,0.0223
2,B2,0.0205
3,B3,0.0196
4,B4,0.0352
